Test results published in patent publication US20240254227A1 (Alector, published 2024).
Where a chain is given by its changes, count along the chain named. One block for each binder: values may come before it.

Columns and labels:
[1] = target: T1, human CD300LB on primary human macrophages (human, UniProt A8K4G0 18-201); experiment: flow cytometry, primary human macrophages donor 1277, 10 ug/mL antibody, isotype control subtracted
T1 sequence: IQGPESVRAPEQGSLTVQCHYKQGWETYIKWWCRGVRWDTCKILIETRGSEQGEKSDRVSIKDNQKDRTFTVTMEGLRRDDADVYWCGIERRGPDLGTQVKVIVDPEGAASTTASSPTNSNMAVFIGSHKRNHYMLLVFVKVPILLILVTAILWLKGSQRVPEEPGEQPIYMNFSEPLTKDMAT
Description: Human monocytes from various donors were isolated from whole blood using RosetteSep Human Monocyte Enrichment Cocktail (Stemcell technologies) and Ficoll centrifugation per manufacturer protocols. After lysing red blood cells with ACK lysing buffer, monocytes were resuspended in complete media (RPMI, 10% FBS, Pen/Strep, L-glutamine, HEPES, non-essential amino acid, Sodium pyruvate). To obtain macrophages from these isolated monocytes, 100 ng/ml human M-CSF and 8% v/v human serum were added to the cells for 5-7 days. Cells were counted on the day of the experiment and plated at 100,000 cells per well in a round-bottom 96 well plate. Cells were incubated with TruStain Fc block and 10 μg/mL antibody for 1 hour on ice before washing with 250 μL ice cold PBS twice. Cells were then incubated with the appropriate APC-conjugated secondary antibodies for 20 minutes in the dark on ice. Finally, cells were washed twice with ice cold FACS buffer and then resuspended in 100 μL FACS buffer containing 1% propidium iodide. Samples were immediately analyzed using a BD FACSCanto flow cytometer. The gMFI was calculated using FlowJo software minus the gMFI of the appropriate isotype control.

[2] = target: T2, huCD300LB-DAP12 fusion constitutively expressed on 293 Freestyle (Freestyle HEK) cells (human); experiment: flow cytometry, geometric mean (APC-A), FreeStyle HEK cells expressing huCD300LB
T2 construct: also called Human CD300LB-DAP12 chimera
Description: Other members of the human CD300 family share sequence homology with human CD300LB. Thus, counter screens against binding of the anti-CD300LB antibodies to huCD300A, huCD300C, huCD300LD, huCD300E, huCD300LF, and huCD300G by stable overexpression in Freestyle HEK cells (generation of which is described above) were performed as follows. Cells were counted and labeled with 200 nM CFSE, 500 nM VioBlue, or a combination of the two to discriminate between CD300LB, Parental cells, and the other CD300 family members. Cells were washed thoroughly with PBS containing 2% fetal bovine serum then resuspended at a total of 240,000 cells per well. Hybridoma supernatants (100 L) or purified antibodies at various concentrations were added and incubated for one hour before the cells were washed twice again and stained with an APC-labeled anti-human or anti-mouse secondary antibody. Cells were then analyzed using a BD FACSCanto II. Anti-CD300LB antibodies were analyzed for specific binding to human CD300LB by FlowJo software by gating on live cells, then the APC geometric mean fluorescence intensity (gMFI) calculated for each labeled population. The results are shown in […]

human CD300C-Fc = target: T3, human CD300C-Fc (human); experiment: SPR (Carterra LSA), antibody immobilised
T3 construct: hIgG1-Fc fusion; the entry is the whole fusion chain
T3 chain: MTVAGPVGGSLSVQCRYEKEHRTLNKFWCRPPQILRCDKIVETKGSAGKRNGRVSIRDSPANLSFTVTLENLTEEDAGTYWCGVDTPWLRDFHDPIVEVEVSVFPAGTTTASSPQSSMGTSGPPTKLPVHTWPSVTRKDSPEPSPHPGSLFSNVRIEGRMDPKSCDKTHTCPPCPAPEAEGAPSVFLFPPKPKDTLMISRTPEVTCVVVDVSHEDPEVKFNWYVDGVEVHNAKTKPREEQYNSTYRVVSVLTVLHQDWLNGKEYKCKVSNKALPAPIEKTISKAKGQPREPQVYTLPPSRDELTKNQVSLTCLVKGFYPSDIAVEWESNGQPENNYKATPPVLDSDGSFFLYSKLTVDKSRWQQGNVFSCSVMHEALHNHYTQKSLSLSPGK
Text: In addition to the screening of antibodies for cross-reactivity by FACS analysis, surface plasmon resonance (SPR) analysis was used to determine the binding of antibodies to recombinant huCD300 and muCD300 family members (orthologs) conjugated to an Fc (human CD300A-Fc SEQ ID NO:144; human CD300LB-Fc SEQ ID NO:145; human CD300C-Fc SEQ ID NO: 146; human CD300D-Fc SEQ ID NO: 147; human CD300E-Fc SEQ ID NO: 148; human CD300F-Fc SEQ ID NO: 149; murine CD300A-Fc SEQ ID NO: 150; murine CD300LB-Fc SEQ ID NO:151; murine CD300C-Fc SEQ ID NO: 152; murine CD300D-Fc SEQ ID NO: 153, and murine CD300E-Fc SEQ ID NO: 154).
Binding of mouse anti-CD300LB IgG1 antibodies of the present disclosure to human and murine CD300 orthologs were evaluated by surface plasmon resonance (SPR) using a Carterra LSA instrument (Carterra, Salt Lake City, UT). […] A HC200M sensor chip (Carterra) was activated using the single channel flow cell with a 7-minute injection of a 1:1:1 mixture of 100 mM MES pH 5.5, 100 mM sulfo-NHS, 400 mM EDC (all reconstituted in MES pH 5.5; 100 μL of each mixed in vial immediately before running assay). After switching to the multi-channel array flow cell, the antibodies were injected over the activated chip in a 96-spot array for 10 minutes. The remaining unconjugated active groups on the chip were then blocked by injecting 1M Ethanolamine pH 8.5 (Carterra) for 7 minutes using the single channel flow cell. After priming with running buffer (HBS-TE, Carterra) with 0.5 mg/ml BSA (Sigma), the immobilized anti-CD300LB antibodies were tested for their ability to bind human and mouse recombinant CD300LB extracellular domains. Human CD300 family members and mouse CD300A were hIgG1-Fc fusions, while mouse CD300LB, mouse CD300C, mouse CD300D, and mouse CD300E were mouse IgG2a-Fc fusions (R&D Systems). Binding was assessed by injecting each analyte over the entire antibody array using the single channel flow cell. CD300 analytes were diluted to 300 nM or 600 nM in running buffer and injected in series without regeneration. Two or three buffer blanks were run between each mouse or human ortholog, respectively. Data were processed and analyzed using NextGenKIT high-throughput kinetics analysis software (Carterra).

gMFI [1]: 3790 gMFI
EC50 (read off the curve) [2]: ~20 nM
B1: anti-CD300LB antibody CD-07 (antibody, V domains shown)
VH: QVQLVQSGAEVKKPGASVKVSCKASGYTFTNYRMHWVRQAPGQGLEWMGWINPNSGGTIYAQKFQGRVTMTRDTSTSTVYMELSSLRSEDTAVYYCARDLDYWGQGTLVTVSS
VL: DIQMTQSPSSLSASVGDRVTITCQASQDISNYLNWYQQKPGKAPKLLIYGASSLQSGVPSRFSGSGSGTDFTLTISSLQPEDFATYYCQQSYSTPWTFGPGTKVEIK

gMFI [1]: 68600 gMFI
binding result (human CD300C-Fc): no binding (tested: 300 nM or 600 nM)
B2: anti-CD300LB antibody CD-05 (antibody, V domains shown)
VH: QVQLVQSGAEVKKPGASVKVSCKASGYTFSRYYINWVRQAPGQGLEWMGWINPNSGGTNYAQKFQGRVTMTRDTSTSTVYMELSSLRSEDTAVYYCTTDQLRFGKTGPYYGMDVWGQGTTVTVSS
VL: B1 VL with Q24R, D28N, S30G, N31T, G50A, T94D, P95T, W96L, P100G

gMFI [1]: 24000 gMFI
B3: anti-CD300LB antibody CD-06 (antibody, V domains shown)
VH: QVQLVQSGAEVKKPGASVKVSCKASGYTFTTYAVHWVRQAPGQGLEWMGIVNPNSGGTNYAQKFQGRVTMTRDTSTSTVYMELSSLRSEDTAVYYCARDIVPMNNFYNYYYGMDVWGQGTTVTVSS
VL: B1 VL with Q24R, D28S, N31S, G50A, A51T, S53T, S93R, T94I, W96Y, P100Q

binding result [2]: no binding
binding result (human CD300C-Fc): no binding (tested: 300 nM or 600 nM)
B4: anti-CD300LB antibody CD-01 (antibody, V domains shown)
VH: RVQLQQSGAELVRPGASVTLSCKASGFTFTDFEMHWVKKTPVHGLEWIGAIDPESGNTAYNQKFRGKATLTADKSSSTAYMELRYLTSEDSAVYYCTPLISGADYWGQGTTLTVSS
VL: DVVMTQSPLSLPVSLGDQASISCRSSQSLVHSDGNTYLYWYLQKPGQSPKLLIYKVSNRFSGVPDRFSGSGSGTDFTFKISRVGAEDLGVYFCSQSTHVPWTFGGGTKLEII

binding result [2]: no binding
binding result (human CD300C-Fc): no binding (tested: 300 nM or 600 nM)
B5: anti-CD300LB antibody CD-02 (antibody, V domains shown)
VH: QVQLQQPGAELVRPGSSVKLSCQASGYTFTNYWMHWVRQRPIQGLEWIGNIDPSDSETHYNQKFKDRATLTVDKSSSTAYMQLSSLTSEDSAVYYCARSGVYDDEGGDYWGQGTTLTVSS
VL: ENVLTQSPAIMSASPGEKVTMTCSASSSVSYIHWYQQKSSTSPKLWIYDTSKLASGVPGRFSGSGSGNSYSLTISSMETEDVATYYCFQGSGYPLTFGAGTKLELK

binding result (human CD300C-Fc): no binding (tested: 300 nM or 600 nM)
B6: anti-CD300LB antibody CD-03 (antibody, V domains shown)
VH: EVQLQQSGPELVKPGASVKISCKASGYTFTDYYINWVRQSHGKSLECIGDINPNNGGTNYNQKFKGKATLTVDRSSNTAYMEFRSLTFDDSALYYCAAEGAYWGQGTLVTVSA
VL: not shown
